These results are taken from patent US10562969B2, “Substitution monotherapy treatment for HIV-1 infection employing antibody PRO140” (CYTODYN INC., priority 2014, dated 2020).

The subject of data set [1] is HIV-1. Particulars: dose-dependent; treatment period of 10-14 days; cited from earlier work.
The conditions of data set [2]: in vivo; cited from earlier work.
For data set [3] the following is noted: single administration of solution, oral, healthy male volunteers; cited from earlier work.
Data set [4] can be described thus: First Phase 2b treatment substitution study, CD4 cell count and safety. Particulars: for CD4 cell count: individual subjects. The source says:
Efficacy assessments at each week included assessment of viral load and CD4 cells count. Safety assessments consisted of physical exam, lab, and adverse event assessments at each treatment and follow-up visit.
The Per Protocol (PP) population was defined as the set of subjects who meet the ITT population requirements, and were not associated with a major protocol violation. This population was identified before the database lock. The PP population will be the primary analysis population for the analysis of primary and secondary endpoints. […] This population will be used for the analysis of safety parameters.

In data set [5] the test system is HIV-1. Nature of the data set: Second Phase 2b extension treatment substitution study, PRO 140 monotherapy. Format: in vivo, human. As for the experimental part: As with the first TS study, only subjects with exclusive CCR5-tropic virus were to be enrolled. However, 6 out of 16 subjects were determined to have dual- or mixed-tropic (D/M) virus when screening blood samples were tested by HIV-1 Co-receptor Tropism by Proviral DNA method or Ultradeep Sequencing with Reflex (Quest Diagnostics), as a retrospective exploratory analysis.

In data set [6] the test system is HIV-1. Conditions: based on pharmacodynamic data from prior SC and IV studies.
Protocol: The maximal change in HIV-1 viral load from baseline was determined at any point 59 days after initiation of therapy. To allow approximate comparisons between the IV and SC doses, the overall AUC observed for repeat SC doses was conservatively estimated by multiplying the measured AUC0-7d by the number of doses administered. Viral load and AUC data were fit to an Emax equation: E=Emax×AUC/(AUC+AUC50).
The subject of data set [7] is HIV-1.
Protocol: All potential study patients were screened and for entry and must be HIV positive with the type of virus, ‘R5’, that uses the coreceptor CCR5 for cell entry and infection.
The first phase 2b TS study, also noted above, was conducted based on the following protocol. The TS study was for the Human Immunodeficiency Virus Type-1 (HIV-1) Infection indication. The TS study involved forty patients, was 14 weeks long, and patients' viral loads were checked weekly. Patients enrolled in the study had undetectable viral load at day one of the study (viral load<50). […] Failure of a patient under study was determined to occur if their viral load (VL) was measured at >400 two times.
Patient enrollment was staggered in this study to facilitate adequate safety monitoring. A lead cohort included 12 subjects. Enrollment of additional 28 subjects was initiated after approval by the independent DSMB.
Subjects who met all eligibility criteria, as per data gathered from Screening Visit were eligible for treatment. […] The first treatment visit took place within 42 days of the screening visit. Eligible subjects received up to 14 treatments, given every week (±3 days) or until virologic failure, whichever occurred first. Visits during the treatment phase commenced on T1, i.e. the date of first treatment, with weekly visits (±3 days) thereafter.
Subjects who experienced virologic failure (defined as two consecutive HIV-1 RNA levels of ≥400 copies/ml separated by at least 3 days) at any time during the treatment phase underwent the virologic failure (VF) visit assessments and then exited the Treatment Phase to enter the follow-up phase of the study.
Subjects who experienced VF were followed up every 4 weeks until the viral suppression was achieved (i.e., plasma HIV-1 RNA levels to return back to <50 copies/mL).
Efficacy Analysis. The main analysis of primary and secondary endpoint will be conducted on the PP population and ITT population will be used for supportive analysis. […] VF is defined as two consecutive HIV-1 RNA levels of ≥400 copies/ml separated by at least 3 days. […] The statistical comparison will be conducted using Wilcoxon rank sum test and the median time to VF for this study will be compared to 30 days.
For data set [8] the following is noted: in vivo.
For data set [9], the target named is T1, CCR5 (Homo sapiens, UniProt P51681). Conditions: cited from earlier work.
T1 sequence (P51681 whole entry): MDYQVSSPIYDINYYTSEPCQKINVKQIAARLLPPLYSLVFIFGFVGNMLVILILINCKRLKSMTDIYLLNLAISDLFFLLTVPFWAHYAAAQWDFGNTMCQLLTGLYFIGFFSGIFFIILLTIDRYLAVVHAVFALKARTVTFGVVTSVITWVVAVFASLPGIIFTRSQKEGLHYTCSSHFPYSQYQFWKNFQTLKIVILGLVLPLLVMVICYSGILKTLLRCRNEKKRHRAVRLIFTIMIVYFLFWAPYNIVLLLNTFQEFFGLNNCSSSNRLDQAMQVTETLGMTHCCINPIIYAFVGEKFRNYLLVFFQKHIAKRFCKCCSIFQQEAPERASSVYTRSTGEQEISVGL
Data set [10] relates to R5 HIV-1. Conditions: cited from earlier work.
For data set [11], the target named is CCR5 on circulating lymphocytes (Homo sapiens, UniProt P51681). Particulars: single IV injection; cited from earlier work.
Chain of CCR5 on circulating lymphocytes (P51681 whole entry): as above
In data set [12] the test system is R5 HIV-1. Conditions: cited from earlier work. This is another data set of the same source.
For data set [13], the system named is HIV-1. Conditions: antiviral; cited from earlier work.
Data set [14] concerns HIV-1. Particulars: repeated administration; cited from earlier work.
The subject of data set [15] is HIV-1. Particulars: cited from earlier work.
Data set [16] concerns HIV-1. Conditions: cited from earlier work. The source holds these as a separate data set.
For data set [17] the following is noted: cited from earlier work.
For data set [18] the following is noted: cited from earlier work. The source holds these as a separate data set.
The conditions of data set [19]: cited from earlier work; for mean change in CD4+ cell counts from baseline: 5 mg/kg IV.
Data set [20] concerns HIV-1. Conditions: cited from earlier work. The source holds these as a separate data set.
For data set [21] the following is noted: subjects treated with SC PRO 140; cited from earlier work.
Data set [22] concerns the target T1, CCR5. More on the design: endogenous in cells. Conditions: for 29 days after treatment with both 5 and 10 mg/kg doses; cited from earlier work.
Where [23] appears, read: interim, first cohort of 12 patients.

Several values for one entry are separate records, joined by “and”; a condition that tells them apart may be missing. Identical values can stand only once. Like-named read-outs stand apart in the source and are kept apart here. Marks after values point to notes of the source that are not given here.

As for `CCCCN1C(=O)[C@@H]([C@H](O)C2CCCCC2)NC(=O)C12CCN(Cc1ccc(Oc3ccc(C(=O)O)cc3)cc1)CC2` [GW873140], the “mean reductions in HIV-1 RNA levels” value in the data set with HIV-1 [1] was “about 1 log10”.
In the case of `CCO/N=C(\c1ccc(Br)cc1)C1CCN(C2(C)CCN(C(=O)c3c(C)cc[n+]([O-])c3C)CC2)CC1` [SCH-C], the “mean reductions in HIV-1 RNA levels” value in the data set with HIV-1 [1] is “about 1 log10”.
For `COC[C@@H](c1ccc(C(F)(F)F)cc1)N1CCN(C2(C)CCN(C(=O)c3c(C)ncnc3C)CC2)C[C@@H]1C` [SCH-D], the “mean reductions in HIV-1 RNA levels” value in the data set with HIV-1 [1] was “about 1 log10”. For the same molecule, the “clinically significant changes in QTc intervals” value in [2] is reported as “none of the above-identified agents induced clinically significant changes in QTc intervals”.
As to `CCCCOCCOc1ccc(-c2ccc3c(c2)/C=C(/C(=O)Nc2ccc([S@@+]([O-])Cc4cncn4CCC)cc2)CCCN3CC(C)C)cc1` [TAK-652], the “safety, tolerability” value in [3] is “safe and well tolerated”.
Consider `Cc1nnc(C(C)C)n1[C@H]1C[C@H]2CC[C@@H](C1)N2CC[C@H](NC(=O)C1CCC(F)(F)CC1)c1ccccc1` [UK-427,857], for which the “mean reductions in HIV-1 RNA levels” value in the data set on HIV-1 [1] was “about 1 log10”. In addition, the “clinically significant changes in QTc intervals” value in data set [2] is on record as “none of the above-identified agents induced clinically significant changes in QTc intervals”.

B1: PRO 140: humanized IgG4,κ monoclonal antibody (mAb) to the C-C chemokine receptor type 5 (CCR5) (antibody, chains of the INN, looked up, V domains shown)
VH: EVQLVESGGGLVKPGGSLRLSCAASGYTFSNYWIGWVRQAPGKGLEWIGDIYPGGNYIRNNEKFKDKTTLSADTSKNTAYLQMNSLKTEDTAVYYCGSSFGSNYVFAWFTYWGQGTLVTVSS
VL: DIVMTQSPLSLPVTPGEPASISCRSSQRLLSSYGHTYLHWYLQKPGQSPQLLIYEVSNRFSGVPDRFSGSGSGTDFTLKISRVEAEDVGVYYCSQSTHVPLTFGQGTKVEIK
B1: the “subjects reporting 'general disorders and administration site conditions' AEs” value in data set [4] (13 of 40 subjects) is listed as 32.5%. Further, in data set [4] (14 of 40 subjects), the “subjects reporting 'infections and infestations' AEs” value was 35%. Further, the “reported AEs deemed either unlikely or not related to study treatment” value in [4] (63/89 AEs) is 70.7%. Also, the “reported AEs deemed mild in nature” value in [4] (72/89 AEs) came to 80.8%. In [4] (after at least one dose of PRO 140), the “subjects who experienced one or more adverse events” value is listed as 28 of 40 subjects. In addition, the “subjects who experienced an SAE” value in [4] (deemed not related to the study drug) is reported as 1 of 40 subjects. Further, the CD4 cell count in data set [4] (visit T3) was 585 /mm^3 and 1043 /mm^3 and 760 /mm^3 and 962 /mm^3 and 667 /mm^3 and 755 /mm^3 and 1299 /mm^3 and 677 /mm^3 and 497 /mm^3 and 443 /mm^3 and 625 /mm^3 and 554 /mm^3 and 901 /mm^3 and 858 /mm^3 and 513 /mm^3; in data set [4] (visit T5), 585 /mm^3 and 465 /mm^3 and 356 /mm^3 and 994 /mm^3 and 704 /mm^3 and 831 /mm^3 and 642 /mm^3 and 509 /mm^3 and 514 /mm^3 and 859 /mm^3 and 665 /mm^3 and 785 /mm^3 and 646 /mm^3. Moreover, the “CD4 cell counts throughout the Treatment Phase” value in data set [4] (overall review, 40 subjects) is reported as “maintained at stable levels”. For the same molecule, the “Proportion of Subjects with Virologic Failure within 24 weeks of PRO 140 Monotherapy” value in the data set on HIV-1 [5] (Total (N = 16)) is reported as 4/16. Moreover, the “subjects experiencing virologic failure in the Extension study” value in the data set with HIV-1 [5] (four out of 16 subjects) is reported as 25%. Further, in the data set with HIV-1 [5] (individual subjects, interim, includes duration from PRO 140 Substitution study), the “Time on PRO 140 Monotherapy” value was 27 # of weeks (3×) and 28 # of weeks (2×) and 31 # of weeks and 22 # of weeks (5×) and 24 # of weeks and 29 # of weeks and 26 # of weeks. For the same molecule, the “subjects with more than 20 weeks of PRO 140 monotherapy” value in the data set on HIV-1 [5] (interim, first TS study plus Extension) is 10 out of 16 subjects and 14 out of 16 subjects. The “duration of complete viral-load suppression” value in the data set on HIV-1 [5] (ongoing extension study) was around 11 months. The “trough concentrations at which maximum virologic suppression is expected” value in the data set with HIV-1 [6] is at least 5 μg/mL. Further, in the data set with HIV-1 [7] (22 out of 40 enrolled subjects), the “enrolled subjects who completed 12 weeks of PRO 140 Monotherapy without experiencing virologic failure” value was found to be 55%. In addition, the “Proportion of Subjects with Virologic Failure within 4 weeks of PRO 140 Monotherapy” value is recorded as 1/24 in the data set on HIV-1 [7] (CCR5 (N = 24)) and 1/40 with HIV-1 [7] (Total (N = 40), 350 mg SC weekly). Also, the figures for the “Proportion of Subjects with Virologic Failure within 12 weeks of PRO 140 Monotherapy” value in the data set on HIV-1 [7] (CCR5 (N = 24)) and in the data set on HIV-1 [7] (Total (N = 40)) were 8/24 and 18/40, respectively. In addition, the “Virologic Failure anytime during Treatment Phase” value in the data set on HIV-1 [7] (CCR5- plus Dual/Mixed-tropic Population N = 40) came to 18 n. Moreover, in the data set with HIV-1 [7] (individual subjects reported as Dual/Mixed), the “Virologic Failure” value was “YES”. Moreover, the “patients who experienced virologic failure after 11 weeks of monotherapy” value in the data set on HIV-1 [7] (setting [23]) is reported as 7 patients. In addition, the “patients who had not experienced virologic failure after 10 weeks of monotherapy” value with HIV-1 [7] (setting [23]) is listed as “five”. The “patients who passed four weeks of monotherapy (no virologic failure)” value with HIV-1 [7] (setting [23]) amounted to 100%. In addition, in the data set on HIV-1 [7] (interim, first cohort, excluding two dual-mix virus patients (six of ten)), the “patients with viral load suppression after 8 weeks of monotherapy” value is listed as 60%. The “virologic failure subjects who achieved viral suppression to <400 and to 'Non Detectable' or <50 HIV-1 RNA copies/ml” value with HIV-1 [7] (once ART reinitiated, seventeen of eighteen subjects) was 94.4%. Also, the PK profile entry in [8] is reported as “favorable PK profile similar to that seen in prior clinical studies”. In [8], the “PK samples, difference between subjects with and without virologic failure” value is on record as “no significant difference observed”. Besides, in the data set with CCR5 [9], the “Block Natural Activity of CCR5” value is on record as “No”. Further, the “time mean viral load reductions of greater than 1 login were sustained post-treatment” value in the data set with R5 HIV-1 [10] (5 mg/kg IV group) is recorded as 2-3 weeks. The “development of viral resistance to PRO 140” value in the data set on R5 HIV-1 [10] (after single IV dose, followed 58 days) is recorded as “no significant development of viral resistance to PRO 140 was observed”. The “viral load reduction on average” value in the data set with R5 HIV-1 [10] (single 5 mg/kg IV dose) was 1.83 login. The “duration of significant masking of CCR5 on circulating lymphocytes” value in [11] is on record as 2-4 weeks. Further, the “persistence of antiviral effects after the final dose” value in the data set on R5 HIV-1 [12] (324 mg SC doses) is listed as “one week”. Besides, the “mean nadir reduction in viral load” value is 1.65 log10 with R5 HIV-1 [12] (324 mg SC weekly for three weeks), 1.8 log10 in the data set with HIV-1 [20] (single 5 mg/kg IV dose) and 1.8 log10 in the data set with HIV-1 [20] (single 10 mg/kg IV dose). Besides, in the data set with HIV-1 [13], the IC90 result is “about 4 μg/ml”. Further, the “control of HIV-1 replication” value in the data set on HIV-1 [14] is “prolonged control of HIV-1 replication without viral escape”. In addition, in the data set with HIV-1 [15], the “Development of Resistance in Vitro” value was “None at 40 weeks”. The “Viral Cross-Resistance” value with HIV-1 [15] is recorded as “Limited”. Further, the results for the “drops in plasma HIV-1 RNA levels” value in the data set with HIV-1 [16] (repetitive weekly administration of 324 mg SC) and in the data set on HIV-1 [16] (single subcutaneous doses of 324 mg) were “approximately 1.5 log10” and “approximately 1.0 log10”, respectively. Besides, the Tolerability entry in data set [17] (in vivo) is on record as “No Toxicity”. The “time serum concentrations are maintained above the IC50 for clinical isolates of HIV-1” value in data set [17] (single dose of 324 mg) is listed as “at least 2 weeks”. The “mean AUC from time zero to infinity (AUC∞)” value in [18] (5 mg/kg single IV, serum) was 278 mg·days/L; in [18] (in vivo, iv, 0.5 mg/kg) it was 11.1 mg·days/L. Besides, the mean serum half-life in data set [18] (in vivo, iv, 5 mg/kg) is 84 h. Also, the “mean change in CD4+ cell counts from baseline” value in data set [19] (day 8) was “+129 cells/μL”; in data set [19] (day 15) it was “+96 cells/μL”; in data set [19] (day 22), “+83 cells/μL”. Moreover, the “effect on QTc interval or other electrocardiographic parameters” value in data set [19] (in vivo, iv) was “no significant effect”. In the data set with HIV-1 [20] (single IV infusion 5 or 10 mg/kg), the “reduction in viral loads, all PRO 140-treated subjects” value is “more than 10 fold”. For the same molecule, in the data set on HIV-1 [20] (treatment groups (5 and 10 mg/kg IV)), the “mean max log10 reductions in viral load” value is listed as 1.83 log10. In addition, the “CD4+ cell counts” value in data set [21] was “trend towards increased CD4+ cell counts”. Further, the “receptor occupancy (reduction in the number of cells detected)” value with CCR5 [22] is on record as above 85%.
